Earlier results on one substance are cited in article PMC6321638.

pKd: −log10 of the molar value.

The target in this data set is ALG-2 (Homo sapiens) (UniProt O75340). The experiment in a line: SPR.
Chain of ALG-2 (Homo sapiens) (O75340 2-191): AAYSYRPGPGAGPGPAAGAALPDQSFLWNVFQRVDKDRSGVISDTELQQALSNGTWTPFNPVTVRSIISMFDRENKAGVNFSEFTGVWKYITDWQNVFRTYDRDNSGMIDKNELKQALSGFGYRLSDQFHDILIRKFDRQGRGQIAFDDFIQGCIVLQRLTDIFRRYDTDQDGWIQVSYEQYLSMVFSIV

Regarding ALIX peptide, the pKd was 6.70.
